In experiment [1] the target is HLA-A*24:02. Nature of the experiment: IEDB peptide-MHC binding, purified MHC/competitive/fluorescence; ≥ and ≤ were set here for values at or beyond the usual limits of such assays.
The target of experiment [2] is HLA-A*24:03. Nature of the experiment: IEDB peptide-MHC binding, purified MHC/direct/fluorescence; filed as Kd, often an IC50 or EC50 that approximates it; ≥ and ≤ were set here for values at or beyond the usual limits of such assays.
Experiment [3] deals with HLA-A*01:01. As to the kind of experiment: IEDB peptide-MHC binding, purified MHC/competitive/radioactivity; filed as Kd, often an IC50 or EC50 that approximates it; ≥ and ≤ were set here for values at or beyond the usual limits of such assays. To be noted: source organism: Dengue virus 4 Philippines/H241/1956.
The target in experiment [4] is HLA-A*26:01. Described as above.
Experiment [5] concerns the target HLA-A*30:02. Described as above.
Experiment [6] concerns the target HLA-B*15:01. The description is as above.
Experiment [7] has as its target HLA-A*23:01. The experiment is described as above.
The target in experiment [8] is HLA-A*24:02. The description is as above. The following applies: source organism: Dengue virus 2 Jamaica/1409/1983.
Experiment [9] concerns the target HLA-B*35:01. The description is as above. The following applies: source organism: Dengue virus 2 Jamaica/1409/1983.
The target of experiment [10] is HLA-B*53:01. Described as above. To be noted: source organism: Dengue virus 2 Jamaica/1409/1983.
The target in experiment [11] is HLA-B*15:01. Nature of the experiment: IEDB peptide-MHC binding, purified MHC/competitive/fluorescence; filed as Kd, often an IC50 or EC50 that approximates it; ≥ and ≤ were set here for values at or beyond the usual limits of such assays. The following applies: source organism: Kurkino virus.
The target in experiment [12] is HLA-A*01:01. As to the kind of experiment: IEDB peptide-MHC binding, purified MHC/direct/fluorescence; filed as Kd, often an IC50 or EC50 that approximates it; ≥ and ≤ were set here for values at or beyond the usual limits of such assays.
Experiment [13] addresses HLA-A*02:01. The description is as above.
Experiment [14] concerns the target HLA-A*03:01. Described as above.
The target in experiment [15] is HLA-A*11:01. The description is as above.
Experiment [16] addresses HLA-A*26:01. Described as above.
For experiment [17], the target named is HLA-A*31:01. Described as above.
Experiment [18] deals with HLA-A*69:01. The description is as above.
Experiment [19] deals with HLA-B*07:02. The description is as above.
The target of experiment [20] is HLA-B*08:01. The experiment is described as above.
Experiment [21] has as its target HLA-B*15:01. The description is as above.
Experiment [22] has as its target HLA-B*27:05. The experiment is described as above.
In experiment [23] the target is HLA-B*40:01. The experiment is described as above.
Experiment [24] deals with HLA-B*44:02. Described as above.
Experiment [25] has as its target HLA-B*58:01. The description is as above.
Experiment [26] has as its target HLA-A*03:01. As to the kind of experiment: IEDB peptide-MHC binding, purified MHC/competitive/radioactivity; filed as Kd, often an IC50 or EC50 that approximates it; ≥ and ≤ were set here for values at or beyond the usual limits of such assays. The following applies: source organism: Vaccinia virus WR.
Experiment [27] deals with HLA-A*11:01. The description is as above. To be noted: source organism: Vaccinia virus WR.
Experiment [28] deals with HLA-A*31:01. The description is as above. To be noted: source organism: Vaccinia virus WR.
Experiment [29] addresses HLA-A*33:01. The description is as above. The following applies: source organism: Vaccinia virus WR.
For experiment [30], the target named is HLA-A*68:01. The experiment is described as above. To be noted: source organism: Vaccinia virus WR.
In experiment [31] the target is HLA-A*02:02. The description is as above. The following applies: source organism: Vaccinia virus WR.
Experiment [32] addresses HLA-A*02:03. The experiment is described as above. The following applies: source organism: Vaccinia virus WR.
The target in experiment [33] is HLA-A*02:06. Described as above. The following applies: source organism: Vaccinia virus WR.
Experiment [34] concerns the target HLA-B*08:01. The description is as above. The following applies: source organism: Vaccinia virus WR.
The mark [35] stands for this setting: source organism: Vaccinia virus Copenhagen.
The mark [36] stands for this setting: source organism: Dengue virus 4 Philippines/H241/1956.
The mark [37] stands for this setting: source organism: Dengue virus 2 Jamaica/1409/1983.
[38] abbreviates: source organism: Zaire ebolavirus.
Where [39] appears, read: source organism: Vaccinia virus WR.
The mark [40] stands for this setting: source organism: Escherichia coli O157:H7.
Where [41] appears, read: source organism: Escherichia coli.
[42] abbreviates: source organism: Giardia lamblia ATCC 50803.
Where [43] appears, read: source organism: Giardia intestinalis.
Setting [44] is: source organism: West Nile virus.
The mark [45] stands for this setting: source organism: Dengue virus 3 Martinique/1243/1999.

As for ADIGEWAFW, the IC50 (in general, the concentration at which inhibition is half-maximal) in [1] (source organism: Sudan ebolavirus) was 19.4 µM.
In the case of AFMRFDDQF, the Kd (as a rule, the concentration at which binding is half-saturated) in [2] (source organism: Listeria monocytogenes) was at most 0.001 µM.
The sequence AKCIEYVTL had an IC50 in [1] (setting [35]) of at least 172 µM.
Turning to ALITVSGLY, the Kd is 8.11 µM in experiment [3], 0.56 µM in experiment [4] (setting [36]), 0.00068 µM in experiment [5] (setting [36]) and 0.00226 µM in [6] (setting [36]).
ALLLLVAHY: the results for the Kd in experiment [5] (setting [37]) and in [6] (setting [37]) were at least 76.9 µM and 0.0506 µM, respectively.
For ALMVIGMAM, the dissociation constant (Kd) in [6] (setting [36]) was found to be 0.00262 µM.
As to AVKYLEGHG, the half-maximal inhibitory concentration (IC50) in experiment [1] (setting [38]) is at least 117 µM.
For EIYTYFSHC, the Kd in experiment [6] (setting [39]) was 0.933 µM.
EYSKDSRNK came in with a half-maximal inhibitory concentration (IC50) in experiment [1] (source organism: Vaccinia virus) of at least 284 µM.
FAPSYSAEM: the Kd in experiment [6] (setting [39]) was 0.454 µM.
For the sequence FMALVAFLRF, the dissociation constant (Kd) in experiment [7] (setting [37]) is 2.51 µM; in experiment [8], at least 27.9 µM; in experiment [6] (setting [37]), 0.229 µM; in experiment [9] it was 0.0697 µM; in experiment [10], 1 µM.
In the case of FQTLTSCTF, the dissociation constant Kd in experiment [11] turned out to be 0.0357 µM.
GLKRGGVLL: the dissociation constant (Kd) was at least 20 µM in experiment [12] (setting [40]); 2.05 µM in experiment [13] (setting [41]); at least 20 µM in [14] (setting [40]); at least 20 µM in [15] (setting [40]); at least 20 µM in experiment [2] (setting [41]); at least 20 µM in [16] (setting [40]). In addition, the Kd was at least 20 µM in experiment [17] (setting [40]); at least 20 µM in experiment [18] (setting [40]); 8.28 µM in experiment [19] (setting [41]); at least 20 µM in experiment [20] (setting [40]); 0.919 µM in [21] (setting [41]); at least 20 µM in experiment [22] (setting [40]). In addition, the Kd in experiment [23] (setting [40]), in experiment [24] (setting [40]) and in [25] (setting [40]) was at least 20 µM throughout.
In the case of GMLSSLHTL, the Kd was at least 20 µM in experiment [12] (setting [42]); 0.0187 µM in experiment [13] (setting [42]); at least 20 µM in experiment [14] (setting [42]); at least 20 µM in experiment [15] (setting [42]); 0.215 µM in experiment [2] (setting [42]); at least 20 µM in experiment [16] (setting [42]). Moreover, the Kd in experiment [17] (setting [42]) was at least 20 µM; in experiment [18] (setting [42]) it was at least 20 µM; in experiment [21] (setting [42]), 0.255 µM; in [22] (setting [42]) it was 2.7 µM; in experiment [23] (setting [42]) it was at least 20 µM; in experiment [24] (setting [42]), at least 20 µM. Also, the Kd in experiment [25] (setting [42]) is 5.05 µM.
On to GPRRAAWRI, for which the Kd in experiment [12] (setting [43]), in experiment [13] (setting [43]), in [14] (setting [43]), in [15] (setting [43]), in [2] (setting [42]) and in [16] (setting [43]) was at least 20 µM throughout. Further, the Kd in experiment [17] (setting [43]) is at least 20 µM; in experiment [18] (setting [43]), at least 20 µM; in experiment [19] (setting [42]), 0.0617 µM; in [20] (setting [43]), at least 20 µM; in experiment [21] (setting [43]), at least 20 µM; in experiment [22] (setting [43]), at least 20 µM. The Kd in experiment [23] (setting [43]), in [24] (setting [43]) and in experiment [25] (setting [43]) was at least 20 µM in each case.
Sequence KRSVMLIGI returned a half-maximal inhibitory concentration (IC50) in experiment [1] (setting [39]) of 9.38 µM.
For KYVDYMSSL, the half-inhibitory concentration (IC50) in experiment [1] (setting [44]) was 0.507 µM.
Turning to LLHCVTESY, the Kd was 3.93 µM in experiment [26]; 8.23 µM in experiment [27]; 12.5 µM in experiment [28]; at least 26.3 µM in experiment [29]; 12.4 µM in experiment [30]; 0.00104 µM in [6] (setting [39]).
Consider LSRVFFCVY, for which the Kd in [6] (setting [39]) worked out at 0.0029 µM.
As to MIIMDEAHF, the Kd in experiment [6] (source organism: Dengue virus 1 Brazil/97-11/1997) is 0.0185 µM.
Sequence MTATLEDDR showed a half-maximal inhibitory concentration (IC50) in [1] (source organism: Variola virus) of 14.6 µM.
In turn, MYRHILRSQ yielded an IC50 in experiment [1] (setting [38]) of 56 µM.
On to NTNKHMLEF, for which, in [6] (setting [39]), the Kd was 0.0118 µM.
For the sequence QLFKYVPSA, the Kd in experiment [31] was determined as 0.0123 µM; in experiment [32], 0.00781 µM; in experiment [33] it was 0.349 µM; in [6] (setting [39]) it was 0.377 µM.
In the case of QYQQLREAA, the IC50 in experiment [1] (setting [38]) was at least 73.9 µM.
Consider RTNAAMGAVF, for which the dissociation constant (Kd) in experiment [7] (setting [45]) was 2.05 µM; in experiment [4] (setting [45]) it was at least 57.3 µM; in experiment [6] (setting [45]), 0.0194 µM.
RWLGGILPW came in with an IC50 in experiment [1] (setting [39]) of 0.0111 µM.
Take SGSTSPRML: in [1] (setting [38]), the IC50 is at least 188 µM.
With SMISRHCCI, the Kd in experiment [34] turned out to be 0.00125 µM; in experiment [6] (setting [39]), 0.0807 µM.
In experiment [1] (setting [38]), SNSVAQARF had an IC50 of at least 83.6 µM.
Consider STANIFRGSY, for which the Kd turned out to be 1.14 µM in [3], 0.0236 µM in experiment [4] (setting [36]), 0.00208 µM in [5] (setting [36]) and 0.00487 µM in experiment [6] (setting [36]).
In the case of VSVNNVCHM, the Kd in [6] (setting [35]) was 0.0139 µM.
VYRIMTRGL: in experiment [2] (setting [44]), the Kd was determined as 0.58 µM.

For the origin of these results see the Immune Epitope Database (IEDB).
